# Measurements taken from patent EP4624492A1 (Shanghai Hongcheng Biopharmaceutical Co., Ltd., dated 2025).
# Positions count from the first letter of the chain named.
# B1: 27B9-1G3 (antibody, V domains shown)
# VH: EIQLQQSGPELEKPGASVKISCKASGYSFTGYNMNWVKKSNGKSLEWIGNIDPYYGGTNYNQKFKGKATLTVDKSSSTAYMQLKSLTSEDSAVYYCARETWFITTGVIKKGFYFDYWGQGTTLTVSS
# VL: EIVLTQSPTTMAASPGEKITLACSASSIISSNYLHWYQQKPGFSPKLLIYRTSSLASGVPARFSGSGSGTSYSLTIGTMEAEDVATYYCQQGSSIPRTFGGGTKLEIK
# notes: Murine hybridoma antibody (supernatant or Protein A purified); also called 27B9-1G3 hybridoma antibody
# B2: 563E10E12 (antibody, V domains shown)
# VH: EVQLIESGGGLVQPKGSLKLSCAASGFNFNAYAMNWVRQAPGKGLEWVARIRSKSNNFATYYADSVTDRFTISRDDSESMLYLQMNNLKTEDTAMYYCVRHGRRDLLYSMDFWGQGTSVTVSS
# VL: DVVMTQAAFSNPVTLGTSTSISCRSSKSLLHSNGITYLFWYLQKPGQSPQLLIYQMSNLASGVPDRFSGSGSGTDFTLRISRVEAEDVGVYYCAQSLELPLTFGGGTKLEIK
# notes: Murine hybridoma antibody; also called 563E10E12 hybridoma antibody
# B3: 569D11B5 (antibody, V domains shown)
# VH: B2 VH with N57D, T67K, D68G, S79N, Y82F
# VL: B2 VL with V2I, T19A
# notes: Murine hybridoma antibody; also called 569D11B5 hybridoma antibody
# B4: 589D7C7 (antibody, V domains shown)
# VH: B2 VH with I5V, T67K, L81V, Q84E
# VL: B2 VL with V2I, T19A, G89A
# notes: Murine hybridoma antibody; also called 589D7C7 hybridoma antibody
# B5: 559E1B10 (antibody, V domains shown)
# VH: KVQLQQSGPVLVKPGASVKMSCKASGYTFTDYYVNWMKQNYGKSPEWIGVINPHNGDTRYNQKFKGKATLTVDKSSSTANMELTSLTSGDSAVYYCASWLRRGYYFDSWGQGTTLTVSS
# VL: DIVMTQSPATLSVTPGDRVSLSCRASQSISDYLHWYQQKSHESPRLLLKYVSQSISGIPSRFSGSGSGSDFTLTINSVEPEDVGVYYCQNGHSFPLTFGAGTKLELK
# notes: Murine hybridoma antibody; also called 559E1B10 hybridoma antibody
# B6: 563E10E12_mIgG2a (antibody)
# heavy: EVQLIESGGGLVQPKGSLKLSCAASGFNFNAYAMNWVRQAPGKGLEWVARIRSKSNNFATYYADSVTDRFTISRDDSESMLYLQMNNLKTEDTAMYYCVRHGRRDLLYSMDFWGQGTSVTVSSAKTTAPSVYPLAPVCGDTTGSSVTLGCLVKGYFPEPVTLTWNSGSLSSGVHTFPAVLQSDLYTLSSSVTVTSSTWPSQSITCNVAHPASSTKVDKKIEPRGPTIKPCPPCKCPAPNLLGGPSVFIFPPKIKDVLMISLSPIVTCVVVDVSEDDPDVQISWFVNNVEVHTAQTQTHREDYNSTLRVVSALPIQHQDWMSGKEFKCKVNNKDLPAPIERTISKPKGSVRAPQVYVLPPPEEEMTKKQVTLTCMVTDFMPEDIYVEWTNNGKTELNYKNTEPVLDSDGSYFMYSKLRVEKKNWVERNSYSCSVVHEGLHNHHTTKSFSRTPGK
# light: DVVMTQAAFSNPVTLGTSTSISCRSSKSLLHSNGITYLFWYLQKPGQSPQLLIYQMSNLASGVPDRFSGSGSGTDFTLRISRVEAEDVGVYYCAQSLELPLTFGGGTKLEIKRADAAPTVSIFPPSSEQLTSGGASVVCFLNNFYPKDINVKWKIDGSERQNGVLNSWTDQDSKDSTYSMSSTLTLTKDEYERHNSYTCEATHKTSTSPIVKSFNRNEC
# notes: also called mIgG2a-subclass chimeric antibody 563E10E12
# B7: 559E1B10_hIgG1 (antibody)
# heavy: not shown
# light: DIVMTQSPATLSVTPGDRVSLSCRASQSISDYLHWYQQKSHESPRLLLKYVSQSISGIPSRFSGSGSGSDFTLTINSVEPEDVGVYYCQNGHSFPLTFGAGTKLELKRTVAAPSVFIFPPSDEQLKSGTASVVCLLNNFYPREAKVQWKVDNALQSGNSQESVTEQDSKDSTYSLSSTLTLSKADYEKHKVYACEVTHQGLSSPVTKSFNRGEC
# notes: also called hIgG1-subclass chimeric antibody 559E1B10
# B8: 559E1B10_hzH2L1_hIgG1 (antibody)
# heavy: not shown
# light: EIVLTQSPATLSLSPGERATLSCRASQSISDYLHWYQQKPGQAPRLLLKYVSQSISGIPARFSGSGSGTDFTLTISSLEPEDFAVYYCQNGHSFPLTFGGGTKVEIKRTVAAPSVFIFPPSDEQLKSGTASVVCLLNNFYPREAKVQWKVDNALQSGNSQESVTEQDSKDSTYSLSSTLTLSKADYEKHKVYACEVTHQGLSSPVTKSFNRGEC
# notes: Humanized, hIgG1/K
# B9: 559E1B10_hzH0L2_hIgG1 (antibody)
# heavy: not shown
# light: B8 light with E1D, L4M
# notes: Humanized, hIgG1/K
# B10: 559E1B10_hzH0L1_hIgG1 (antibody)
# heavy: not shown
# light: B8 light
# notes: Humanized, hIgG1/K
# B11: 559E1B10_hzH3L0_hIgG1 (antibody, V domains shown)
# VH: KVQLVQSGAEVKKPGASVKVSCKASGYTFTDYYVNWVRQAPGQGLEWIGVINPHNGDTRYNQKFKGKATLTVDKSTSTAYMELSSLRSEDTAVYYCASWLRRGYYFDSWGQGTTVTVSS
# VL: EIVLTQSPATLSLSPGERATLSCRASQSISDYLHWYQQKPGQAPRLLIYYVSQSISGIPARFSGSGSGTDFTLTISSLEPEDFAVYYCQNGHSFPLTFGGGTKVEIKR
# notes: Humanized, hIgG1/K
# B12: 559E1B10_hzH2L2_hIgG1 (antibody)
# heavy: not shown
# light: B8 light with E1D, L4M
# notes: Humanized, hIgG1/K
# B13: 559E1B10_hzH3L1_hIgG1 (antibody)
# heavy: not shown
# light: B8 light
# notes: Humanized, hIgG1/K
# B14: 559E1B10_hzH1L2_hIgG1 (antibody)
# heavy: not shown
# light: B8 light with E1D, L4M
# notes: Humanized, hIgG1/K
# B15: 559E1B10_hzH3L2_hIgG1 (antibody)
# heavy: not shown
# light: B8 light with E1D, L4M
# notes: Humanized, hIgG1/K
# B16: 569D11B5_hIgG1 (antibody)
# heavy: not shown
# light: DIVMTQAAFSNPVTLGTSASISCRSSKSLLHSNGITYLFWYLQKPGQSPQLLIYQMSNLASGVPDRFSGSGSGTDFTLRISRVEAEDVGVYYCAQSLELPLTFGGGTKLEIKRTVAAPSVFIFPPSDEQLKSGTASVVCLLNNFYPREAKVQWKVDNALQSGNSQESVTEQDSKDSTYSLSSTLTLSKADYEKHKVYACEVTHQGLSSPVTKSFNRGEC
# notes: also called hIgG1-subclass chimeric antibody 569D11B5
# B17: 589D7C7_hIgG1 (antibody)
# heavy: not shown
# light: B16 light with G89A
# notes: also called hIgG1-subclass chimeric antibody 589D7C7
# B18: 563E10E12_hzH1L0_VLPLL (antibody, human IgG1, kappa)
# heavy: EVQLVESGGGLVQPGGSLKLSCAASGFNFNAYAMNWVRQASGKGLEWVGRIRSKSNNFATYYADSVTDRFTISRDDSKNTAYLQMNSLKTEDTAVYYCVRHGRRDLLYSMDFWGQGTTVTVSSASTKGPSVFPLAPSSKSTSGGTAALGCLVKDYFPEPVTVSWNSGALTSGVHTFPAVLQSSGLYSLSSVVTVPSSSLGTQTYICNVNHKPSNTKVDKKVEPKSCDKTHTCPPCPAPELVGGPSVFLLPPKPKDTLMISRTPEVTCVVVDVSHEDPEVKFNWYVDGVEVHNAKTKPPEEQYNSTLRVVSVLTVLHQDWLNGKEYKCKVSNKALPAPIEKTISKAKGQPREPQVYTLPPSRDELTKNQVSLTCLVKGFYPSDIAVEWESNGQPENNYKTTPLVLDSDGSFFLYSKLTVDKSRWQQGNVFSCSVMHEALHNHYTQKSLSLSPGK
# light: B16 light with A7S, A8P, F9L, N11L, L15P, T17E, S18P, R79K, L109V
# Biological target: T1, human CCR8 (human, UniProt P51685 1-355)
# T1 construct: whole, on cells; the cell line is named under assay; also called hCCR8
# Assay: flow cytometry on 293F-hCCR8 cells
row,Binder,EC50 [µg/mL]
1,B1,0.15
2,B2,0.195
3,B3,0.159
4,B4,0.361
5,B5,0.107

# Biological target: T1, human CCR8
# Assay: cell-based or functional assay
row,Binder,IC50 of blockade of CCL1-induced β-arrestin recruitment (Tango-H_CCR8-CHO-K1 cells) [µg/mL]
1,B6,0.902

# Biological target: T1, human CCR8
# Assay: flow cytometry on 293F-hCCR8 cells
# Remark: another data set of the same source
row,Binder,EC50 [µg/mL]
1,B7,0.101
2,B8,0.141
3,B9,0.0979
4,B10,0.135
5,B11,0.13
6,B12,0.204
7,B13,0.176
8,B14,0.15
9,B15,0.133

# Biological target: T1, human CCR8
# Assay: flow cytometry, competition with 10 nM AF647-human CCL1 on 293F-hCCR8 cells
row,Binder,IC50 [µg/mL]
1,B7,0.125
2,B8,0.102
3,B9,0.0413
4,B10,0.0438
5,B11,0.443
6,B12,0.14
7,B13,0.088
8,B14,0.0769
9,B15,0.121

# Biological target: T1, human CCR8
# Assay: cell-based or functional assay
# Remark: another data set of the same source
row,Binder,IC50 of blockade of CCL1-induced β-arrestin recruitment [µg/mL]
1,B7,10.2
2,B8,46.5
3,B9,11.2
4,B10,118
5,B12,6.69
6,B13,14.8
7,B14,7.33
8,B15,71.2

# Biological target: T1, human CCR8
# Assay: flow cytometry on 293F-hCCR8 cells
# Remark: another data set of the same source
row,Binder,EC50 [µg/mL]
1,B16,0.113
2,B17,0.164
3,B7,0.0617
4,B6,0.0833

# Biological target: T1, human CCR8
# Assay: flow cytometry, competition with 10 nM AF647-human CCL1 on 293F-hCCR8 cells
# Remark: another data set of the same source
row,Binder,IC50 [µg/mL]
1,B1,0.127
2,B2,0.132
3,B3,0.0882
4,B4,0.075
5,B5,0.0785

# Biological target: T2, cynomolgus CCR8 (cynomolgus monkey)
# T2 construct: whole, on cells; the constructs of the cell lines are not tied to it word for word; also called cynoCCR8
# Assay: flow cytometry, hybridoma supernatant on CHOK1-cynoCCR8 cells
row,Binder,MFI [MFI]
1,B1,14000
2,B2,16900
3,B3,13200
4,B4,15200
5,B5,21900

# Biological target: T1, human CCR8
# Assay: cell-based or functional assay
# Remark: another data set of the same source
row,Binder,EC50 of activation of Jurkat-human FcγRIIIa(158V)-NFAT with 293F-hCCR8 target cells [µg/mL]
1,B7,0.0401
2,B8,0.0292
3,B9,0.0286
4,B10,0.0305
5,B11,0.0985
6,B12,0.033
7,B13,0.028
8,B14,0.0325
9,B15,0.0344

# Biological target: T1, human CCR8
# Assay: flow cytometry, competition with 10 nM AF647-human CCL1 on 293F-hCCR8 cells
# Remark: another data set of the same source
row,Binder,IC50 [µg/mL]
1,B16,0.0748
2,B17,0.0526
3,B7,0.0549
4,B6,0.0411

# Biological target: T1, human CCR8
# Assay: flow cytometry, hybridoma supernatant on CHOK1-hCCR8 cells
row,Binder,MFI [MFI]
1,B1,2660
2,B2,6370
3,B3,5800
4,B4,6120
5,B5,7350

# Biological target: T1, human CCR8
# Assay: cell-based or functional assay
# Remark: another data set of the same source
row,Binder,EC50 of activation of Jurkat-human FcγRIIIa(158V)-NFAT with HuT78 target cells [µg/mL]
1,B18,0.0117

# Biological target: T1, human CCR8
# Assay: cell-based or functional assay
# Remark: another data set of the same source
row,Binder,EC50 of activation of Jurkat-human FcγRIIIa(158V)-NFAT with 293F-hCCR8 target cells [µg/mL]
1,B18,0.0017

# Biological target: T2, cynomolgus CCR8
# Assay: flow cytometry on 293T-cynoCCR8 cells
row,Binder,EC50 [µg/mL]
1,B6,0.0664

# Biological target: T2, cynomolgus CCR8
# Assay: flow cytometry on 293T-cynoCCR8 cells
# Remark: another data set of the same source
row,Binder,EC50 [µg/mL]
1,B1,0.146
2,B2,0.591
3,B3,0.444
4,B4,0.298
5,B5,0.322
